Measured values reported in paper PMC2133002 (The Journal of Cell Biology, 1998).

How the values were obtained:
Experiment in all cases: co-IP
[1] = target: membrin (rat (endogenous in rat liver)) (UniProt O35165)
[2] = target: rbet1 (rat (endogenous in rat liver)) (UniProt Q62896)
membrin = target: T1, membrin (rat (endogenous in rat liver), UniProt O35165 1-212)
T1 sequence: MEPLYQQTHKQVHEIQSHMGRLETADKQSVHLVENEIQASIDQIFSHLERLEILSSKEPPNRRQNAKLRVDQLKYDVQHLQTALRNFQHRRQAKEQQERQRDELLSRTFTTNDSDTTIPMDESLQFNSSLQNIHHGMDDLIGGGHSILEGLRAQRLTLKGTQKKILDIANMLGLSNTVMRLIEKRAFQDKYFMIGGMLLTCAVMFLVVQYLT

rbet1 = target: T2, rbet1 (rat (endogenous in rat liver), UniProt Q62896 1-118)
T2 sequence: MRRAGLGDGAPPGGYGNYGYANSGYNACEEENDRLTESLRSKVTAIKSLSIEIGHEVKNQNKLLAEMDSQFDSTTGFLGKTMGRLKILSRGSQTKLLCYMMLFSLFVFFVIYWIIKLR

[3] = target: T3, Golgi SNARE of 28 kD (GOS-28) (rat (endogenous in rat liver), UniProt Q62931 1-250)
T3 sequence: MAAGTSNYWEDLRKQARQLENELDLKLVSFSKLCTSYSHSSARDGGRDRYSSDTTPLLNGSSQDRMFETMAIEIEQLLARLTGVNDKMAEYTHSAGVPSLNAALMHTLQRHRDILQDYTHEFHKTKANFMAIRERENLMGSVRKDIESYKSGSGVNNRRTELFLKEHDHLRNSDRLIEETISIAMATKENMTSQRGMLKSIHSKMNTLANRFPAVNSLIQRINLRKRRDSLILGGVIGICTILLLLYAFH

Molecule | efficiency of coprecipitation (arbitrary units) [2] | efficiency of coprecipitation (membrin) [arbitrary units] | efficiency of coprecipitation (rbet1) [arbitrary units] | efficiency of coprecipitation [3] [arbitrary units] | further results
rbet1 (from UniProt Q62896 1-118) (natural protein) | – | – | – | – | efficiency of coprecipitation (arbitrary units) [1]: 115
syntaxin 5, 31-kD form (degradation product of the 41-kD isoform) (domain or fragment) | 139 | – | – | – | –
rsec22b (from UniProt Q4KM74 1-215) (natural protein) | 247 | – | – | – | –
membrin (from UniProt O35165 1-212) (natural protein) | 308 | – | – | – | –
syntaxin 5, 34-kD isoform (natural protein) MSCRDRTQEFLSACKSLQSRQNGIQTNKPALHATRQCSEFTLMARRIGKDLSNTFAKLEKLTILAKRKSLFDDKAVEIEELTYIIKQDINSLNKQIAQLQDFVRAKGSQSGRHLQTHSNTIVVSLQSKLASMSNDFKSVLEVRTENLKQQRNRREQFSRAPVSALPLAPNNLGGGPIVLGGESRASRDVAIDMMDPRTSQQLQLIDEQDSYIQSRADTMQNIESTIVELGSIFQQLAHMVKEQEETIQRIDENVLGAQLDVEAAHSEILKYFQSVTSNRWLMVKIFLILIVFFIIFVVFLA | – | 37 | 128 | 134 | –
syntaxin 5, 41-kD isoform (natural protein) MIPRKRYGSKNTDQGVYLGLSKTQVLSPATAINSSSDIAPLPTPVALVPSPPDTMSCRDRTQEFLSACKSLQSRQNGIQTNKPALHATRQCSEFTLMARRIGKDLSNTFAKLEKLTILAKRKSLFDDKAVEIEELTYIIKQDINSLNKQIAQLQDFVRAKGSQSGRHLQTHSNTIVVSLQSKLASMSNDFKSVLEVRTENLKQQRNRREQFSRAPVSALPLAPNNLGGGPIVLGGESRASRDVAIDMMDPRTSQQLQLIDEQDSYIQSRADTMQNIESTIVELGSIFQQLAHMVKEQEETIQRIDENVLGAQLDVEAAHSEILKYFQSVTSNRWLMVKIFLILIVFFIIFVVFLA | – | 25 | 129 | 30 | –
